For data set [1], the system named is GST fusion protein containing CT-FIP (pGEX-CT-FIP).
In data set [2] the test system is HA-tagged full-length FIP200 (pKH3-FIP200, residues 1-1591).

Chain of FAK immunoprecipitated from Chinese hamster ovary cells overexpressing FAK (Q05397 2-1052): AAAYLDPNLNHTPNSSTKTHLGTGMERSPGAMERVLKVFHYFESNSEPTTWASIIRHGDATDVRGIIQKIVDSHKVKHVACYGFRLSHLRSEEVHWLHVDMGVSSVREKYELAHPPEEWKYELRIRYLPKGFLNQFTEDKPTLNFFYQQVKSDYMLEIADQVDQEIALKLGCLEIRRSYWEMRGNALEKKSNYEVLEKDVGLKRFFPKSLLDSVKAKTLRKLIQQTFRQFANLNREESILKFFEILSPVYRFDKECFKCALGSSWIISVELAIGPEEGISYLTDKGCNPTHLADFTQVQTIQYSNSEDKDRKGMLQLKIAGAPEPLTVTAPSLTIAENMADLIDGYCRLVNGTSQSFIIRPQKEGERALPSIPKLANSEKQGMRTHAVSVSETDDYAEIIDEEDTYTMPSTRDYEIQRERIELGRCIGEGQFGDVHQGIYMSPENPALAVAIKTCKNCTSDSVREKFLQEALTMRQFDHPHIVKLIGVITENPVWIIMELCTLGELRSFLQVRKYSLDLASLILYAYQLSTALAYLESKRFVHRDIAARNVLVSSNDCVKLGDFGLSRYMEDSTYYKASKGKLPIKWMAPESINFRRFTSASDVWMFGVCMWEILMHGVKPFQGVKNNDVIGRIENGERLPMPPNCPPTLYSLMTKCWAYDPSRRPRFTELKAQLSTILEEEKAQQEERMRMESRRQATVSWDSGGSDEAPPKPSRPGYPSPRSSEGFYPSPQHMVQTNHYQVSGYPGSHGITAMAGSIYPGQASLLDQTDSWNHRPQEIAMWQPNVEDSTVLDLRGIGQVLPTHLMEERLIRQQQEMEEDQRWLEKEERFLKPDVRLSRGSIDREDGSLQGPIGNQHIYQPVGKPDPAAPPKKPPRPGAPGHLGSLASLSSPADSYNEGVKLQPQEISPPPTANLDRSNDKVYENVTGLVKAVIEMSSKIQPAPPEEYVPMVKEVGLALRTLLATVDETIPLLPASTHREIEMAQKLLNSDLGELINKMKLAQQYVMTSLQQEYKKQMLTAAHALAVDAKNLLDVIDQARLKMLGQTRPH
Chain of FAK expressed from an expression vector encoding FAK (tag not stated) (Q05397 2-1052): as above

For the substance “FAK immunoprecipitated from Chinese hamster ovary cells overexpressing FAK”, the “FAK kinase activity (in vitro kinase assay, E4Y1 as exogenous substrate)” value was “GST alone did not have any effect” with GST alone [GST: P08515] and “at lower concentrations (e.g., <5 pmol/reaction), GST fusion proteins containing NT-FIP or MD-FIP reduced FAK kinase activity, whereas CT-FIP did not” in data set [1].
“FAK expressed from an expression vector encoding FAK (tag not stated)”: the “rescue of BrdU incorporation (NIH3T3)” value in data set [2] is “it rescued the inhibition of BrdU incorporation by FIP200 to the control levels”.
